Assay results from patent US20250289893A1 (OXFORD UNIVERSITY INNOVATION, published 2025).

Tests used:
[1] = biological target: T1, Cynomolgus monkey CD1a protein (Cynomolgus monkey); experiment: ELISA, 10 µg/ml antibody
T1 chain: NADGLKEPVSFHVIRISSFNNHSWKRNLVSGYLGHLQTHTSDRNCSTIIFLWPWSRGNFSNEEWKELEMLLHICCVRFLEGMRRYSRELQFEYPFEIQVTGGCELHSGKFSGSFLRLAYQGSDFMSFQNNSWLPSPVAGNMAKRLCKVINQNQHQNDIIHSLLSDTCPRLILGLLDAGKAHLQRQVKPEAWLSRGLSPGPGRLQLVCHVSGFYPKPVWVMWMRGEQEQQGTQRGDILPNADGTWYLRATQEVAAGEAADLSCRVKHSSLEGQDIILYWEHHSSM

[2] = biological target: T2, Cynomolgus monkey CD1a expressed on HEK-293 cells (Cynomolgus monkey, UniProt A0A2K5VQ68 17-326); experiment: flow cytometry, HEK-293 cells, 0.01 µg/ml antibody
Description: (§1) Binding to proteins expressed on HEK, C1R and MOLT4 cell lines was assessed. […] The C1R-CD1a, C1R-empty vector and MOLT4 cell lines were washed in 1×PBS on the day required. All cell lines were counted and resuspended in 1×PBS and then stained for 30 minutes at 37° C. using the DiI or DiO cellular stains (Invitrogen). Cells were washed with flow cytometry buffer (1% bovine serum albumin, 2 mM EDTA and 0.1% sodium azide in PBS) before mixing 2 DiI-stained and DiO-stained populations together. The cells (20 μl/well) were then added to dilutions of antibody sample (B cell culture supernatant, TAP supernatant, clone supernatant, purified antibody solution) (20 μl/well) and incubated for 1 hour at 4° C. in a flow cytometry assay plate, before being washed with flow cytometry buffer. 10 μl/well of Alexafluor647-conjugated goat anti-species IgG Fc-specific F(ab′)2 fragment (Jackson ImmunoResearch), diluted 1:2500 in flow cytometry buffer, was added and incubated at 4° C. for 30 minutes, followed by washing with wash buffer. The fluorescence intensity was then measured on an iQue screener PLUS.
(§2) Binding was quantified as fold change in fluorescence intensity geomean over background assessed by flow cytometry.

[3] = biological target: T3, human CD1a expressed on cells (human, UniProt P06126 17-327; P61769 21-119); experiment: flow cytometry, MOLT4 cells, 0.1 µg/ml antibody
T3 construct: also called HEK - CD1a; C1R - CD1a
Description: (§3) CD1a-specific antibodies were identified by flow cytometry. Binding to proteins expressed on HEK, C1R and MOLT4 cell lines was assessed. […] The C1R-CD1a, C1R-empty vector and MOLT4 cell lines were washed in 1×PBS on the day required. All cell lines were counted and resuspended in 1×PBS and then stained for 30 minutes at 37° C. using the DiI or DiO cellular stains (Invitrogen). Cells were washed with flow cytometry buffer (1% bovine serum albumin, 2 mM EDTA and 0.1% sodium azide in PBS) before mixing 2 DiI-stained and DiO-stained populations together. The cells (20 μl/well) were then added to dilutions of antibody sample (B cell culture supernatant, TAP supernatant, clone supernatant, purified antibody solution) (20 μl/well) and incubated for 1 hour at 4° C. in a flow cytometry assay plate, before being washed with flow cytometry buffer. 10 μl/well of Alexafluor647-conjugated goat anti-species IgG Fc-specific F(ab′)2 fragment (Jackson ImmunoResearch), diluted 1:2500 in flow cytometry buffer, was added and incubated at 4° C. for 30 minutes, followed by washing with wash buffer. The fluorescence intensity was then measured on an iQue screener PLUS.
as §2

[4] = biological target: T3, human CD1a expressed on cells; experiment: flow cytometry, C1R cells, 1 µg/ml antibody
Description: as §1, §2

[5] = biological target: T3, human CD1a expressed on cells; experiment: flow cytometry, MOLT4 cells, 31.6 µg/ml antibody
Description: as §3, §2

[6] = biological target: T4, chimeric CD1a pool B protein [human CD1a lipid binding domain, mouse CD1d Ig domain] (human; mouse, UniProt P06126 18-201; P11609 205-297, limits assumed); experiment: ELISA, 31.6 µg/ml antibody
Description: (§4) CD1a-specific antibodies were identified by ELISA. […] 20 μl/well of peroxidase-conjugated goat anti-species IgG Fc-specific F(ab′)2 fragment (Jackson ImmunoResearch), diluted 1:5000 in block buffer was added and incubated at room temperature for 1 hour, followed by washing with wash buffer.
(§5) The antibodies were titrated through a dilution series and compared to a control rabbit IgG antibody. […] Data shown for purified antibodies.

[7] = biological target: T5, human CD1c expressed on HEK-293 cells (human, UniProt P29017 18-333; P61769 21-119); experiment: flow cytometry, HEK-293 cells, 0.1 µg/ml antibody
T5 construct: also called HEK - CD1c
Description: as §1
(§6) HEK-293 cells were transiently transfected with human CD1a, CD1b, CD1c or CD1d and co-transfected with human β2M.

[8] = biological target: T6, human CD1b expressed on HEK-293 cells (human, UniProt P29016 18-333; P61769 21-119); experiment: flow cytometry, HEK-293 cells, 0.1 µg/ml antibody
T6 construct: also called HEK - CD1b
Description: as §1, §6

[9] = biological target: T3, human CD1a expressed on cells; experiment: flow cytometry, HEK-293 cells, 0.1 µg/ml antibody
Description: as §1, §6

[10] = biological target: T7, human CD1d expressed on HEK-293 cells (human, UniProt P15813 20-335; P61769 21-119); experiment: flow cytometry, HEK-293 cells, 0.1 µg/ml antibody
T7 construct: also called HEK - CD1d
Description: as §1, §6

[11] = biological target: T5, human CD1c expressed on HEK-293 cells; experiment: flow cytometry, HEK-293 cells, 31.6 µg/ml antibody
Description: as §1, §6

[12] = biological target: T6, human CD1b expressed on HEK-293 cells; experiment: flow cytometry, HEK-293 cells, 31.6 µg/ml antibody
Description: as §1, §6

[13] = biological target: T3, human CD1a expressed on cells; experiment: flow cytometry, HEK-293 cells, 31.6 µg/ml antibody
Description: as §1, §6

[14] = biological target: T7, human CD1d expressed on HEK-293 cells; experiment: flow cytometry, HEK-293 cells, 31.6 µg/ml antibody
Description: as §1, §6

[15] = biological target: T8, human CD1a protein (pool B) (human, UniProt P06126 18-295, limits assumed); experiment: ELISA, 3.16 µg/ml antibody
T8 construct: Recombinant protein of the ELISA (coated) and the Biacore T200 titration; whole entry named; also called human CD1a pool B; full length CD1a
Description: as §4
(§7) The antibodies were titrated through a dilution series and compared to a control rabbit IgG antibody.

[16] = biological target: T3, human CD1a expressed on cells; experiment: flow cytometry, MOLT4 cells, 0.0316 µg/ml antibody
Description: as §3, §2

[17] = biological target: T5, human CD1c expressed on HEK-293 cells; experiment: flow cytometry, HEK-293 cells, 0.0316 µg/ml antibody
Description: as §1, §6

[18] = biological target: T6, human CD1b expressed on HEK-293 cells; experiment: as above
Description: as §1, §6

[19] = biological target: T3, human CD1a expressed on cells; experiment: as above
Description: as §1, §6

[20] = biological target: T7, human CD1d expressed on HEK-293 cells; experiment: as above
Description: as §1, §6

[21] = biological target: T3, human CD1a expressed on cells; experiment: flow cytometry, C1R cells, 0.1 µg/ml antibody
Description: as §1, §2

[22] = biological target: T4, chimeric CD1a pool B protein [human …; experiment: ELISA, 1 µg/ml antibody
Description: as §4, §5

[23] = biological target: T8, human CD1a protein (pool B); experiment: ELISA, 0.316 µg/ml antibody
Description: as §4, §7

[24] = biological target: T2, Cynomolgus monkey CD1a expressed on …; experiment: flow cytometry, HEK-293 cells, 1 µg/ml antibody
Description: as §1, §2

[25] = biological target: Chinese variant CD1a protein (human) (UniProt P06126); experiment: ELISA, 0.1 µg/ml antibody
Chain of Chinese variant CD1a protein (human) (P06126 18-295, change not shown): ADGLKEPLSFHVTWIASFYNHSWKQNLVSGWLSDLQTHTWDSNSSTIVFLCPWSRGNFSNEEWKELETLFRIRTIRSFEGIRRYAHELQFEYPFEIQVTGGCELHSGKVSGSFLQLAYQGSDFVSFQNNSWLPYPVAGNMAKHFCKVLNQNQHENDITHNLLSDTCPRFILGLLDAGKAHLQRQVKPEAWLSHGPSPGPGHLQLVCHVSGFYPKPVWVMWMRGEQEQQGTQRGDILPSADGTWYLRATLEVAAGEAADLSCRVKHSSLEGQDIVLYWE

T4 sequence (P06126 other isoform, or with tags, fused parts or gaps mutant limits assumed): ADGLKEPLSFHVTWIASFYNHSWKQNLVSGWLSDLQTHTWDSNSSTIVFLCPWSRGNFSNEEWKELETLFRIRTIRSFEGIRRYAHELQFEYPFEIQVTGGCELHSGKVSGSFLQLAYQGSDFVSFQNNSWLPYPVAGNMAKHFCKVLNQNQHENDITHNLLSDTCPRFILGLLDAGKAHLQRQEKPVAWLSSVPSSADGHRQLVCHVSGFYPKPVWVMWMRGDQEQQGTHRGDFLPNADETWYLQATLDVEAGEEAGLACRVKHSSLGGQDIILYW
T2 sequence (A0A2K5VQ68 entry or part of it): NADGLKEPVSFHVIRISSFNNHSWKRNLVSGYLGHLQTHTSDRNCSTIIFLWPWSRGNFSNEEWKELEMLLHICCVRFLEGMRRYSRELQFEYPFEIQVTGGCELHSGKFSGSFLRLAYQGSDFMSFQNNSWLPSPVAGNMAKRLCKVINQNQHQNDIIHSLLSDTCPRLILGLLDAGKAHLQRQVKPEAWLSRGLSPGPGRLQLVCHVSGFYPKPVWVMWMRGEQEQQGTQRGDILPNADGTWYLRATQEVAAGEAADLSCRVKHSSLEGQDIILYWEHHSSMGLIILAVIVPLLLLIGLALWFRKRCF
T8 sequence (P06126 18-295 limits assumed): as the sequence (P06126 18-295, change not shown) above

B1: 116 (VR12117) (antibody, V domains shown)
VH: QSVEESGGRLVTPGTPLTLTCTVSGFSLSNYAMSWVRQAPGKGLEWIGIIYTTGFTYYASWVKGRFTISKTSTTVDLKITSPTTEDTATYFCARGLATYVSPPTRLDLWGQGTLVTVSS
VL: AQVLTQTPSPVSAAVGGTVTINCQASQSIYNSKNLAWYQQKPGQPPKLLIYSASTLASGVPSRFKGSGSGTQFTLTISDLECDDAATYYCQGEFSCSSVDCATFGGGTEVVVK
notes: also called OX116
In the case of B1, the “Optical Density (OD)” value [1] is reported as 0.16 OD, the “Fluorescence Intensity Geomean (normalized to background)” value [2] is reported as 1 fold over background and the “Fluorescence Intensity Geomean (normalized to background)” value [3] is reported as 22.6 fold over background. For the same binder, the “Fluorescence Intensity Geomean (normalized to background)” value [4] was 28.7 fold over background, the “Fluorescence Intensity Geomean (normalized to background)” value [5] was 5.6 fold over background and the “Optical Density (OD)” value [6] was 1.35 OD. For the same binder, the “Fluorescence Intensity Geomean (normalized to background)” value [7] was 1 fold over background, the “Fluorescence Intensity Geomean (normalized to background)” value [8] was 1 fold over background and the “Fluorescence Intensity Geomean (normalized to background)” value [9] was 26.7 fold over background. The “Fluorescence Intensity Geomean (normalized to background)” value [10] was 1.1 fold over background, the “Fluorescence Intensity Geomean (normalized to background)” value [11] was 1 fold over background and the “Fluorescence Intensity Geomean (normalized to background)” value [12] was 1 fold over background. The “Fluorescence Intensity Geomean (normalized to background)” value [13] was 5.6 fold over background, the “Fluorescence Intensity Geomean (normalized to background)” value [14] was 1 fold over background and the “Optical Density (OD)” value [15] was 1.15 OD. For the same binder, the “Fluorescence Intensity Geomean (normalized to background)” value [16] was 14.9 fold over background, the “Fluorescence Intensity Geomean (normalized to background)” value [17] was 1 fold over background and the “Fluorescence Intensity Geomean (normalized to background)” value [18] was 1 fold over background. For the same binder, the “Fluorescence Intensity Geomean (normalized to background)” value [19] was 15.7 fold over background, the “Fluorescence Intensity Geomean (normalized to background)” value [20] was 1 fold over background and the “Fluorescence Intensity Geomean (normalized to background)” value [21] was 27 fold over background. For the same binder, the “Optical Density (OD)” value [22] was 1.42 OD, the “Optical Density (OD)” value [23] was 1.15 OD and the “Fluorescence Intensity Geomean (normalized to background)” value [24] was 0.8 fold over background. The Optical Density (OD) [25] was 1.53 OD.
